Reference: US20040048243A1, “Methods and compositions for in vitro targeting” (priority 2003, published 2004)
No end group written: not given here.

Tests used:
MDA-MB435 cells = assay: Inhibition of RGD-4C-β-gal phage transduction by synthetic peptides; assay type: cell-based, human; conditions: target cells pre-incubated with synthetic peptide; dose-dependent
Protocol: (§1) In the peptide inhibition experiments, MDA-MB435 cells were cultured on 12-well plates and then incubated with 10 μg of RGD-4C peptide (SEQ ID NO: 166) or control peptides (CARAC, SEQ ID NO: 169 or CKDRFERC, SEQ ID. NO: 59) in normal growth media for 30 minutes. KS1767 cells were grown on 12-well plates and then incubated with 40 μg CTTHWGFTLC (SEQ D NO: 167) or control peptides in normal growth media for 30 minutes. After this the growth media were replaced by 500 μl of MEM containing 2% FCS and 5×10^10 transducing units (TU) of either RGD-4C-β-gal, HWGF-β-gal, or control fd-β-gal phage. Phage vectors were incubated on peptide-treated cells (three hours at 37° C., 5% CO2) followed by a media change to MEM plus 10% FCS. Transduced cells were then maintained in a cell incubator for 72 hours (37° C., 5% CO2).
(§2) In the peptide inhibition assays, β-gal activity in cell lysates was detected by the Galacto-Star® chemiluminescent reporter gene system (Tropix, Bedford, Mass.) according to the manufacturer's protocol. […] Cells were analyzed for GFP gene expression at 72 hours post infection. For GFP detection, cells were analyzed by fluorescence activated cell sorting (FACS) in a FACScan (Becton-Dickinson, San Jose, Calif.) or counted and photographed under a fluorescence microscope (Nikon).

CD13 = biological target: T1, CD13 (Sus scrofa, UniProt P15145); assay: Peptide competition of angiostatin binding to CD13; conditions: up to 500 μg of peptide; not shown
T1 construct: purchased Sigma, St Louis, Mo; L-9776
T1 sequence (P15145 2-963 limits assumed): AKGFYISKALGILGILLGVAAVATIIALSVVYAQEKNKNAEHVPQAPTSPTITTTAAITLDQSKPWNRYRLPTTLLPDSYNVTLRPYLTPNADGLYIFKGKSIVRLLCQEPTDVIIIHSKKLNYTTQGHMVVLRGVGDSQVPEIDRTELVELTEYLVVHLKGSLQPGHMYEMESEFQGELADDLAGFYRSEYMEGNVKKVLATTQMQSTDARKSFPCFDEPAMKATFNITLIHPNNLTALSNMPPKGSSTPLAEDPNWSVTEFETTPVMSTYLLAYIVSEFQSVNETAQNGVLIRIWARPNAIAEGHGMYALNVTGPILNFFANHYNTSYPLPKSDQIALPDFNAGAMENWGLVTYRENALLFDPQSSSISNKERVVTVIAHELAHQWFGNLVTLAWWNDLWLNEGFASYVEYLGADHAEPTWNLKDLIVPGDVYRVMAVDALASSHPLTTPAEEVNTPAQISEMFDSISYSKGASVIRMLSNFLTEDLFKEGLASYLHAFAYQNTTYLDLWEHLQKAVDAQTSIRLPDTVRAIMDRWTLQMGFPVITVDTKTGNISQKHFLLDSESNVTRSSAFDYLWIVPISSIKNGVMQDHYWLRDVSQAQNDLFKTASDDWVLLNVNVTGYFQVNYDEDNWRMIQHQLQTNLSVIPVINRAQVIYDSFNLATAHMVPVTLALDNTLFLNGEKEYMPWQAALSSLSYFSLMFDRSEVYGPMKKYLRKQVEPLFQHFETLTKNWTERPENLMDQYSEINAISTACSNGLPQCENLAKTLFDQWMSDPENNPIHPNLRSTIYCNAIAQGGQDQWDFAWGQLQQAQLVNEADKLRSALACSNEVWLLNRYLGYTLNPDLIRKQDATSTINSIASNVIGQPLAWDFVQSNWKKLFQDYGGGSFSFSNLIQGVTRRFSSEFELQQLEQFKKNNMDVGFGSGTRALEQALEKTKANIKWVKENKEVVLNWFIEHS
Protocol: (§3) To assess protein-protein interactions, 100 ng/well of protein was coated in triplicate in 96-well plates. The plates were dried at 37° C., blocked with PBS and 3% BSA, and incubated with 10 μg/ml of rhAngiostatin in PBS+1% BSA for three hours at RT. The wells were washed three times with PBS, 3% BSA, 0.01% Tween 20 before incubation with anti-rhAngiostatin antibody (R&D Systems, Inc #AF226) at 1 μg/ml for 1 hour at RT. The wells were then washed three times with PBS, 3% BSA, 0.01% Tween 20 and incubated with […] anti-goat antibody. After washing 3 times with PBS, 0.01% Tween 20 and once with PBS, the wells were developed with p-nitrophenyl phosphate. Binding of alkaline phosphate conjugate was detected colorimetrically at […]. using an ELISA microplate reader.
Binding of angiostatin to CD13 was competitive with the NGR peptide (Burg et al., 1999) in a dose-dependent manner (not shown). Control experiments were run with the CARAC peptide (SEQ ID NO: 169) (not shown). Binding of angiostatin to CD13 was inhibited by more than 50% by 0.5 μg of NGR peptide, while binding was unaffected by up to 500 μg of CARAC peptide (SEQ ID NO: 169) (not shown).

[1] = system: tumor-associated antigens in tissue sections from bone marrow metastasis; assay: Immunohistological staining with antibodies against peptide C; assay type: binding, human; conditions: antibodies pre-incubated with GST-peptide C
Protocol: GST-fusion proteins containing the peptide sequence from patient C were coated on multi-well plates. After incubating the plates with the patient's serum, the plates were washed. The bound IgG antibodies were eluted with 50 μl of 0.1 M glycine buffer, pH 2.2, neutralized by addition of 10 μl 1 M Tris pH 9.0, and dialyzed in PBS overnight followed by concentration of the antibody using Centricon-30 (Millipore) filters. The purified antibody (500 μg) was coupled to biotin according to the manufacturer's instructions (Vector). The biotinylated antibody was analyzed by SDS-gel electrophoresis.
Paraffin sections from patient C were stained with purified biotinylated antibodies and peptide antibodies by immunoperoxidase detection using the Dako antigen retrieval kit and DAB as a substrate. All of the sections (4 μm) were counter-stained with hematoxylin. The biotinylated immunopurified antibodies were used at a dilution of 1:100. Peptide C antibodies and purified pre-immune antibodies were used at 0.01 μg/μl. For the inhibition staining, peptide C antibodies were pre-incubated for 30 minutes at room temperature with the GST-peptide C (500μg) prior to staining. Peptide antibodies were generated in rabbits and purified using a T-gel immunoglobulin purification kit and protein G column (Pierce).

KS1767 cells = assay: Inhibition of HWGF-β-gal phage transduction by synthetic peptides; assay type: cell-based, human; conditions: target cells pre-incubated with synthetic peptide; dose-dependent
Protocol: as §1, §2

bovine serum albumin = biological target: T2, bovine serum albumin (bovine, UniProt P02769 25-607); assay: phage binding assay (FIG. 22)
T2 construct: control protein coated on wells; also called BSA

[2] = system: angiostatin receptor in tissue sections; assay: Angiostatin staining of tissue sections of metastatic human bone marrow; assay type: binding; conditions: 100 μg/ml rh-angiostatin, anti-angiostatin antibody detection
Protocol: Angiostatin was incubated with tissue sections of metastitic human bone marrow. After washing, the tissue sections were developed with an anti-angiostatin Ab, followed by the corresponding secondary Ab conjugated to peroxidase. […] The staining was specific since only this structure and not other cells were stained.
Anti-human Angiostatin were purchased (R&D Systems: AF226). rhAngiostatin was produced by EntreMed, Inc. (Rockville, Md.). Surgical specimens of human metastases (Bouin-fixed 4-6 h, paraffin-embedded sections, 5-6 μm thick) were adsorbed on polylysine-coated slides. Tissue slides were incubated with 100 μg/ml of rh-angiostatin. The slides were washed 3 times and incubated with anti-angiostatin antibody. The slides were washed again 3 times and bound antibodies were detected using an anti-goat peroxidase-conjugate antibody.

CD13 (Aminopeptidase N) = biological target: T3, CD13 (Aminopeptidase N) (Sus scrofa, UniProt P15145); assay: Protein-protein interaction ELISA: rhAngiostatin binding to coated protein
T3 construct: purchased Sigma, St Louis, Mo; L-9776
T3 sequence (P15145 1-963): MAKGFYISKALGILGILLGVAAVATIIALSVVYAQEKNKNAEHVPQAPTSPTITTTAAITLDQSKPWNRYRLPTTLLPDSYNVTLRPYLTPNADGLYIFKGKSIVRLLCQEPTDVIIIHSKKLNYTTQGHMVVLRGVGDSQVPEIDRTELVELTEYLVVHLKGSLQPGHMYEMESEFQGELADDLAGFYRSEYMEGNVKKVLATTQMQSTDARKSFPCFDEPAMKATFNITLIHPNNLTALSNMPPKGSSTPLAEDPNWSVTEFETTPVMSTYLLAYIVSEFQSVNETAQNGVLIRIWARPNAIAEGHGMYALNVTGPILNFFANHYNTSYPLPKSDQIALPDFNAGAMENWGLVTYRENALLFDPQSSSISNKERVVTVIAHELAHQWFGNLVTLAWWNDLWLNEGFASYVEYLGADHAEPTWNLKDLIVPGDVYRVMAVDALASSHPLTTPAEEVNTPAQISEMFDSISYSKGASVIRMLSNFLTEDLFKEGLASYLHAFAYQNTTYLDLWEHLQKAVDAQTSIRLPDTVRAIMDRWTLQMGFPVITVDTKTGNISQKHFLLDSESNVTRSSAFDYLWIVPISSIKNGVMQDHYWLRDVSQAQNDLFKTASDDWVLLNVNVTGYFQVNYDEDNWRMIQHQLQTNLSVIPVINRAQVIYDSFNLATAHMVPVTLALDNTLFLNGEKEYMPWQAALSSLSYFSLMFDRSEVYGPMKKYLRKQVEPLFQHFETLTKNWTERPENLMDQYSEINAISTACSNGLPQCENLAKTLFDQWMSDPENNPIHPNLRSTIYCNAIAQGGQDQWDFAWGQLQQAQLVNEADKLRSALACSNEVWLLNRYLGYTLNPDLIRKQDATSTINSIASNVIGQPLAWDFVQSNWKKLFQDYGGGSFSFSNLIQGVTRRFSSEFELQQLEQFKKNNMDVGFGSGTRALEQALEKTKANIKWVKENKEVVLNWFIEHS
Protocol: as §3

VN (vitronectin) = biological target: T4, VN (vitronectin) (Homo sapiens, UniProt P04004); assay: as above
T4 sequence (P04004 20-478): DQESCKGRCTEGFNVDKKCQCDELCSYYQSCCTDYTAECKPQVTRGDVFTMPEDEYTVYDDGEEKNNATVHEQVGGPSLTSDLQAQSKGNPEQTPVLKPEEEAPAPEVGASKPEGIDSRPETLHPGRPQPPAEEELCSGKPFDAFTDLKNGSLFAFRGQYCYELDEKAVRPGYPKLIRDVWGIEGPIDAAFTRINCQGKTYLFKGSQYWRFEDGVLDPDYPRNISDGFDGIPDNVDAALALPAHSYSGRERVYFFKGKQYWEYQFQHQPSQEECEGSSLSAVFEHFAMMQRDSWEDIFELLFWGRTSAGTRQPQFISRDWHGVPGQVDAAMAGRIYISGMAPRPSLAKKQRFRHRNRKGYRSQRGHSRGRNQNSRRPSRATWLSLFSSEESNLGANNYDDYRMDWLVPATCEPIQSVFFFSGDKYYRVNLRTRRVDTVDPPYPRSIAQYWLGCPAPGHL
Protocol: as §3

Thrombospondin 1 (TSP-1) = biological target: T5, Thrombospondin 1 (TSP-1) (Homo sapiens, UniProt P07996); assay: as above; conditions: TSP-1, positive control
T5 construct: purchased Calbiochem, San Diego, Calif; 605225
Protocol: as §3

[3] = biological target: T6, HGF (hepatocyte growth factor) (Homo sapiens, UniProt P14210); assay: as above
T6 construct: purchased Calbiochem, San Diego, Calif; 375228
Protocol: as §3

LN (laminin) = assay: as above
Protocol: as §3

FN (fibronectin) = FN (fibronectin) (Homo sapiens, UniProt P02751); assay: as above
Protocol: as §3

COL IV (collagen IV) = assay: as above
Protocol: as §3

T6 sequence (P14210 32-728): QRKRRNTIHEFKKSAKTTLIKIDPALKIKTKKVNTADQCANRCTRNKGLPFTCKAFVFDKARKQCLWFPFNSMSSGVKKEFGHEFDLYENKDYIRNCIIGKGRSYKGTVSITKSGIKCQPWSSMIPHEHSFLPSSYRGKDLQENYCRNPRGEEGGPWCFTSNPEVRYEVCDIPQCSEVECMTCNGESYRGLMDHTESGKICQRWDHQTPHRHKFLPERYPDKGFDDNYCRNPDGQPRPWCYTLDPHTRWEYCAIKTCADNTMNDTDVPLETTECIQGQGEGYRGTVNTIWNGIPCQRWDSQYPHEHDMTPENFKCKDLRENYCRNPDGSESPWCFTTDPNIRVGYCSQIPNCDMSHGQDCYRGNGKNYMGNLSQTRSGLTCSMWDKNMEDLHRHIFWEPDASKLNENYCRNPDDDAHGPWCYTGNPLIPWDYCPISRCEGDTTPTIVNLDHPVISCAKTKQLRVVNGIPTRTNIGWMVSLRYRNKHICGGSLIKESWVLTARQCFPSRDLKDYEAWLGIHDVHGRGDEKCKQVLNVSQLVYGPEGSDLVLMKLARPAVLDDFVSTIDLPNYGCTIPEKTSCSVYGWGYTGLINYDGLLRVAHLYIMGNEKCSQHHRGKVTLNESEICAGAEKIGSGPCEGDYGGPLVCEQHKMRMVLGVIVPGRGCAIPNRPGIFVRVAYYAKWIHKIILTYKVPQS
T5 sequence (P07996 19-1170): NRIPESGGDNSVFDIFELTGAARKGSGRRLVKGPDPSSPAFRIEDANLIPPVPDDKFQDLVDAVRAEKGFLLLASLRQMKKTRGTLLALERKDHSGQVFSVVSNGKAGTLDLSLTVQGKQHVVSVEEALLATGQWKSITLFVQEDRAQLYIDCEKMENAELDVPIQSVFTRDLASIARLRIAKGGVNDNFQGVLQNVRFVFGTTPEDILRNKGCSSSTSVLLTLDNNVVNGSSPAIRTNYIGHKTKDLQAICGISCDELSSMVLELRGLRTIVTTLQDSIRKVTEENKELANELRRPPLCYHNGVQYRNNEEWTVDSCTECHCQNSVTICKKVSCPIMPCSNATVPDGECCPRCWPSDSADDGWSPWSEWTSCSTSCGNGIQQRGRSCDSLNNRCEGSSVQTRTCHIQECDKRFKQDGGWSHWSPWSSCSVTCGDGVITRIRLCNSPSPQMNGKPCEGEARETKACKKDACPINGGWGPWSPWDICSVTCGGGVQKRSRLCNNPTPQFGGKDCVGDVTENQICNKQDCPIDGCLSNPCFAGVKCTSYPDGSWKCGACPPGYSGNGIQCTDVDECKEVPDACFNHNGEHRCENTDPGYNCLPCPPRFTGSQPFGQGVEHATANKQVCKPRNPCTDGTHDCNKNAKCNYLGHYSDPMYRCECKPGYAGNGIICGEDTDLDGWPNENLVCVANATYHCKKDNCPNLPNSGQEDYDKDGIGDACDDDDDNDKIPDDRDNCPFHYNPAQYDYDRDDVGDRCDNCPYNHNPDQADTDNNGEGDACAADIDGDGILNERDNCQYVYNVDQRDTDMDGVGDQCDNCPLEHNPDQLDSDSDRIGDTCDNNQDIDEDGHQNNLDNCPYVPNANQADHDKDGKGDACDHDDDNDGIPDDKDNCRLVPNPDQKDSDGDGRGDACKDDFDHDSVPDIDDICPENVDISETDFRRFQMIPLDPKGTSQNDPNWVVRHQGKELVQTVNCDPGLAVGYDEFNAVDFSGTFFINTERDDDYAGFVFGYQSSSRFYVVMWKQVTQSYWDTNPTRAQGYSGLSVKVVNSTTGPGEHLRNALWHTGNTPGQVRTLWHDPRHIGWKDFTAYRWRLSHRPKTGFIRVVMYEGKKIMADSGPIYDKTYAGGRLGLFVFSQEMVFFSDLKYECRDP
T2 sequence (P02769 25-607 limits assumed): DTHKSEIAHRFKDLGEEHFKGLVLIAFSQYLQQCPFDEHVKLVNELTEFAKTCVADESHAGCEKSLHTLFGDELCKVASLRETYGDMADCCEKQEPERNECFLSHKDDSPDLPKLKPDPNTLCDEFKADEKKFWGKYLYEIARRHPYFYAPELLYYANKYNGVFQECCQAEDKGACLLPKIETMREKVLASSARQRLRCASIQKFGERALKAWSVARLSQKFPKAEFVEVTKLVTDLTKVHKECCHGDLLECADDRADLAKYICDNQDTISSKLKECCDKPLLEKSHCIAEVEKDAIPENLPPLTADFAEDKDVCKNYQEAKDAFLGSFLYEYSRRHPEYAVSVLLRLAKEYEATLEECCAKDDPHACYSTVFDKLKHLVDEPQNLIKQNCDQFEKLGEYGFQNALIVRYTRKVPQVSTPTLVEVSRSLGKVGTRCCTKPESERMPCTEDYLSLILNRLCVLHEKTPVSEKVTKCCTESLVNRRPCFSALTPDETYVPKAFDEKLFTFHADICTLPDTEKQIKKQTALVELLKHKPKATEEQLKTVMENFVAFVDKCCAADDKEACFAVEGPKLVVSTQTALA
Sequence of FN (fibronectin) (P02751 32-2477, species assumed): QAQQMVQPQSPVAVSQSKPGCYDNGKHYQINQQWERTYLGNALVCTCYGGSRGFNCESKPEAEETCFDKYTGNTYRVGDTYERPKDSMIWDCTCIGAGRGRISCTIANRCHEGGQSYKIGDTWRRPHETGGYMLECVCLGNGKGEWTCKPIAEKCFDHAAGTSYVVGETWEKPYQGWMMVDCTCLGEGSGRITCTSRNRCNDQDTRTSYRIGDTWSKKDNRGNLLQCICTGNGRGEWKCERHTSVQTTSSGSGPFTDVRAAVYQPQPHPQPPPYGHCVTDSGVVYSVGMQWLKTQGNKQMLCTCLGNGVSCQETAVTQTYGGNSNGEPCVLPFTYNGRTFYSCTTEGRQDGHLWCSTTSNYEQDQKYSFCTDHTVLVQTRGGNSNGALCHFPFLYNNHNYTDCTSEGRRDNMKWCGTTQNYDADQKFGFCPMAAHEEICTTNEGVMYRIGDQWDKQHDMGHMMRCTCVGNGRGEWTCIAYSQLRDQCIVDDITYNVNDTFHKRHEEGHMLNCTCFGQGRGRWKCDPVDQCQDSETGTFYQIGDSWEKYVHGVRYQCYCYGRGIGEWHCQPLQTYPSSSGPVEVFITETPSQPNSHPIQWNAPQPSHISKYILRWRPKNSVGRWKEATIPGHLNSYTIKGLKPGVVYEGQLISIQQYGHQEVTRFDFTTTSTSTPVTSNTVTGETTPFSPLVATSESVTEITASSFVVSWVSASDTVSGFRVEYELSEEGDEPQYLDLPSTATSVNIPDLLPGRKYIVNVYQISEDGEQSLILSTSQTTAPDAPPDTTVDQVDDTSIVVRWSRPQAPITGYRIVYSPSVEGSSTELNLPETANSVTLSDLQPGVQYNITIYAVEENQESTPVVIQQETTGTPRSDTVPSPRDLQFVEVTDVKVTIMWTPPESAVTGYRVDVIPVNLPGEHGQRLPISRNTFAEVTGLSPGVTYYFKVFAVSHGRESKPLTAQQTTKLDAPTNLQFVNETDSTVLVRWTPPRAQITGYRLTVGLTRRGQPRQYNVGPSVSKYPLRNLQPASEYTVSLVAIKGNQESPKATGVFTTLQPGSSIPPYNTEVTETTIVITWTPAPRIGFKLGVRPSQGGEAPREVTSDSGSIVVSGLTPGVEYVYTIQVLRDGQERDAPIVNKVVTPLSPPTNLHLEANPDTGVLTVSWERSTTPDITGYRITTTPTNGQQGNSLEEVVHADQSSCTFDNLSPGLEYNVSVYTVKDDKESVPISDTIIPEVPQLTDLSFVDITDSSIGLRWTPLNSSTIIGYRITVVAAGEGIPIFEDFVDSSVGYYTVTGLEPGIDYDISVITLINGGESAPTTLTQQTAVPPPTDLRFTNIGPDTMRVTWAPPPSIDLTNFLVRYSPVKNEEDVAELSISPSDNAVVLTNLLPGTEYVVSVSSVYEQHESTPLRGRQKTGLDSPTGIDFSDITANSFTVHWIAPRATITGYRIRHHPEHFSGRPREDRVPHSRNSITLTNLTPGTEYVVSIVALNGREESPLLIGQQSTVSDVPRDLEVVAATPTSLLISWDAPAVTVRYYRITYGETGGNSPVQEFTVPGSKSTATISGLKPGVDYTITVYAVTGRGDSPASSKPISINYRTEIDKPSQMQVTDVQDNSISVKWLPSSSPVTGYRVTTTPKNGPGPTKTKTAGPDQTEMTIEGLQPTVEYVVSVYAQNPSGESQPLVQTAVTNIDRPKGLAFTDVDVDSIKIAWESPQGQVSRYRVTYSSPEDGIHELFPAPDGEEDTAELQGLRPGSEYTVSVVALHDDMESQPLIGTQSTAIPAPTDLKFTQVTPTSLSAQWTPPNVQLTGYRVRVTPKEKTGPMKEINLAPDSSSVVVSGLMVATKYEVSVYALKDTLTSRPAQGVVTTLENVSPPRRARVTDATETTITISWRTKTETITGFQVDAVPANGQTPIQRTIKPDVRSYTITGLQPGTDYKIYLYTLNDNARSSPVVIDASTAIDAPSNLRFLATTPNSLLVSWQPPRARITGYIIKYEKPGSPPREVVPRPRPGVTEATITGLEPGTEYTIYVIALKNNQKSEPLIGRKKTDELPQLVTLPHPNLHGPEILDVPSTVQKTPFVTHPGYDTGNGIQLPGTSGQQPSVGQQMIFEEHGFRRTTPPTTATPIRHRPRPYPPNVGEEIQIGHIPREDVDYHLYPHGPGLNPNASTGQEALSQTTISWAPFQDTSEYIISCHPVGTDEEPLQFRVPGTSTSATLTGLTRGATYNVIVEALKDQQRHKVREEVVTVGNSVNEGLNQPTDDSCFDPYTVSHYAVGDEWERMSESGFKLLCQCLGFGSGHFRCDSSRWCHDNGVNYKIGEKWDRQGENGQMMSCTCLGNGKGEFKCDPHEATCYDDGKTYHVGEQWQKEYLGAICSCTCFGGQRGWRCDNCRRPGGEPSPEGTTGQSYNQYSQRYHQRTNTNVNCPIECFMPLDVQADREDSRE

Question: CDCRGDCFC [RGD4C peptide] was tested. Which “inhibition of RGD-4C-β-gal phage transduction” value (MDA-MB435 cells) did it give?
Answer: Its value is “greater than 99%”.

Question: `O=c1[nH]cc(F)c(=O)[nH]1` [CARAC peptide, CARAC] was tested. Which “effect on binding of angiostatin to CD13” value (CD13) did it give?
Answer: Its value is “unaffected”.

Question: With “GST-fusion protein containing peptide C: GST-fusion protein containing peptide C (CNVSDKSC; cysteine pairing not given here; also: fused to GST)” as the molecule, how does the “inhibition of anti-peptide C staining” value [1] read?
Answer: The value was “completely inhibited”.

Question: For CTTHWGFTLC, which “inhibition of HWGF-β-gal phage transduction” value (KS1767 cells) is on record?
Answer: Its value is “greater than 90%”.

Question: Does CVPELGHEC (cysteine pairing not given here; also: displayed on phage) [phage bearing the sequence CVPELGHEC] bind (bovine serum albumin)?
Answer: Result: no binding

B1: angiostatin: rh-Angiostatin produced by EntreMed, Inc. (protein)
chain: VYLSECKTGNGKNYRGTMSKTKNGITCQKWSSTSPHRPRFSPATHPSEGLEENYCRNPDNDPQGPWCYTTDPEKRYDYCDILECEEECMHCSGENYDGKISKTMSGLECQAWDSQSPHAHGYIPSKFPNKNLKKNYCRNPDRELRPWCFTTDPNKRWELCDIPRCTTPPPSSGPTYQCLKGTGENYRGNVAVTVSGHTCQHWSAQTPHTHNRTPENFPCKNLDENYCRNPDGKRAPWCHTTNSQVRWEYCKIPSCDSSPV
Question: B1 was tested. Which “staining of tissue sections” value [2] did it give?
Answer: The value was “vessel-like”.

Question: And the “binding of angiostatin to coated protein” value (CD13 (Aminopeptidase N))?
Answer: Its value is “binds”.

Question: And the “binding of angiostatin to coated protein” value (VN (vitronectin))?
Answer: Its value is “not”.

Question: And the “binding of angiostatin to coated protein” value (Thrombospondin 1 (TSP-1))?
Answer: The value was “binds”.

Question: And the “binding of angiostatin to coated protein” value [3]?
Answer: The value was “binds”.

Question: And the “binding of angiostatin to coated protein” value (LN (laminin))?
Answer: The value was “not”.

Question: And the “binding of angiostatin to coated protein” value (FN (fibronectin))?
Answer: Its value is “not”.

Question: And the “binding of angiostatin to coated protein” value (COL IV (collagen IV))?
Answer: The value was “not”.
